Assay results published in the supplement of paper PMC7877785.
± gives the uncertainty stated by the source.

Assay: self-splicing fitness, log relative to wild type (ln ratio); higher = more splicing; Tetrahymena group I intron in knt gene, E. coli kanamycin selection, DiMSum; sequences stand for … in CUCUCU…GGAGGGAAAAGUUAUCAGGCAUGCACCUGGUAGCUAGUCUUUAAACCAAUAGAUUGCAUCGGUUUAAAAGGCAAGACCGUCAAAUUGCGGGAAAGGGGUCAACAGCCGUUCAGUACCAAGUCUCAGGGGAAACUUUGAGAUGGCCUUGCAAAGGGUAUGGUAAUAAGCUGACGGACAUGGUCCUAACCACGCAGCCAAGUCCUAAGUCAACAGAUCUUCUGUUGAUAUGGAUGCAGUUCACAGACUAAAUGUCGGUCGGGGAAGAUGUAUUCUUCUCAUAAGAUAUAGUCGGACCUCUCCUUAAUGGGAGCUAGCGGAUGAAGUGAUGCAACACUGGAGCCGCUGGGAACUAAUUUGUAUGCGAAAGUAUAUUGAUUAGUUUUGGAGUACUCGUGGUCG
Summary of the method: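 Library with all eight P1ex-region intron nucleotides randomised, intron inside the knt kanamycin-resistance gene on pET-22b(+), in E. coli BL21(DE3). Cells grew overnight at 37°C or 30°C on LB agar with or without 25 μg/mL kanamycin (plus 100 μg/mL carbenicillin, 50 μM IPTG, 0.2% rhamnose), in six replicate transformations. Pooled colonies were amplicon-sequenced on Illumina HiSeq 2500. DiMSum fitness is the error-weighted combination of wild-type-normalised replicate fold changes, kanamycin versus none.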

| Sequence | self-splicing fitness (ln) (30 °C) | self-splicing fitness (ln) (37 °C) |
| --- | --- | --- |
| CUUAAGCAAUAUUACGCGAC | -1.83 ± 0.16 | -0.508 ± 0.23 |
| CUUAAGCAAUAUUACGCGCG | -1.54 ± 0.12 | -0.513 ± 0.17 |
| CUUAAGCAAUAUUACGCGUA | -2.75 ± 0.34 | -3.23 ± 0.29 |
| CUUAAGCAAUAUUACGCGUU | -4.44 ± 0.23 | -3.85 ± 0.25 |
| CUUAAGCAAUAUUACGGAGU | -2.92 ± 0.099 | -2.31 ± 0.12 |
| CUUAAGCAAUAUUACGGGUA | -2.7 ± 0.22 | -2.75 ± 0.38 |
| CUUAAGCAAUAUUACGGUUG | -1.95 ± 0.14 | -1.3 ± 0.14 |
| CUUAAGCAAUAUUACGUAAA | -3.93 ± 0.27 | -2.88 ± 0.36 |
| CUUAAGCAAUAUUACGUACU | -2.82 ± 0.16 | -2.67 ± 0.23 |
| CUUAAGCAAUAUUACGUAUC | – | -2.98 ± 0.33 |
| CUUAAGCAAUAUUACGUCAG | -0.948 ± 0.084 | -0.564 ± 0.1 |
| CUUAAGCAAUAUUACGUCCU | -3.41 ± 0.21 | -2.43 ± 0.19 |
| CUUAAGCAAUAUUACGUCGC | – | -1.65 ± 0.33 |
| CUUAAGCAAUAUUACGUCUC | -3.75 ± 0.33 | -2.11 ± 0.27 |
| CUUAAGCAAUAUUACGUCUU | -3.64 ± 0.24 | -3.11 ± 0.25 |
| CUUAAGCAAUAUUACGUUAU | -3.09 ± 0.14 | -2.51 ± 0.2 |
| CUUAAGCAAUAUUACGUUGU | -3.89 ± 0.2 | -1.64 ± 0.15 |
| CUUCAGCAAUAUUACGAAAA | -2.29 ± 0.2 | -3.03 ± 0.35 |
| CUUCAGCAAUAUUACGACCU | -2.42 ± 0.21 | -1.7 ± 0.27 |
| CUUCAGCAAUAUUACGAGCC | -2.29 ± 0.21 | -1.59 ± 0.3 |
| CUUCAGCAAUAUUACGAGGC | -4.72 ± 0.41 | -1.59 ± 0.4 |
| CUUCAGCAAUAUUACGCACG | -1.02 ± 0.085 | -0.456 ± 0.13 |
| CUUCAGCAAUAUUACGCGUA | -2.92 ± 0.18 | -2.46 ± 0.17 |
| CUUCAGCAAUAUUACGCUAG | -3.22 ± 0.26 | -1.34 ± 0.19 |
| CUUCAGCAAUAUUACGCUCG | -2.42 ± 0.15 | -0.933 ± 0.26 |

| Sequence | self-splicing fitness (ln) (30 °C) | self-splicing fitness (ln) (37 °C) |
| --- | --- | --- |
| CUUCAGCAAUAUUACGGAAU | -1.46 ± 0.13 | -1.17 ± 0.14 |
| CUUCAGCAAUAUUACGGAGA | -3.47 ± 0.21 | -3.04 ± 0.19 |
| CUUCAGCAAUAUUACGGGGA | -3.36 ± 0.27 | -1.65 ± 0.18 |
| CUUCAGCAAUAUUACGGUAA | -1.67 ± 0.23 | -1.88 ± 0.17 |
| CUUCAGCAAUAUUACGGUCA | -2.2 ± 0.25 | -3.2 ± 0.24 |
| CUUCAGCAAUAUUACGUUGU | -3.52 ± 0.18 | -2.92 ± 0.28 |
| CUUGAGCAAUAUUACGACUU | -2.53 ± 0.37 | -3.56 ± 0.43 |
| CUUGAGCAAUAUUACGAGCA | -2.65 ± 0.41 | -3.07 ± 0.33 |
| CUUGAGCAAUAUUACGAGGA | -3.08 ± 0.38 | – |
| CUUGAGCAAUAUUACGAUAA | -3.27 ± 0.31 | -0.951 ± 0.37 |
| CUUGAGCAAUAUUACGAUGU | -2.24 ± 0.14 | -3.43 ± 0.26 |
| CUUGAGCAAUAUUACGCAGG | -3.46 ± 0.25 | -3.55 ± 0.35 |
| CUUGAGCAAUAUUACGCUAA | -4.05 ± 0.31 | -3.36 ± 0.35 |
| CUUGAGCAAUAUUACGCUAU | -3.44 ± 0.34 | -2.58 ± 0.49 |
| CUUGAGCAAUAUUACGCUCU | -2.57 ± 0.5 | -1.13 ± 0.33 |
| CUUGAGCAAUAUUACGGAUU | -4.83 ± 0.45 | -3.23 ± 0.29 |
| CUUGAGCAAUAUUACGGCAU | – | -1.93 ± 0.28 |
| CUUGAGCAAUAUUACGGGCA | -3.94 ± 0.35 | -1.91 ± 0.21 |
| CUUGAGCAAUAUUACGGUAA | – | -2.99 ± 0.47 |
| CUUGAGCAAUAUUACGGUAC | -2.24 ± 0.2 | -2.16 ± 0.42 |
| CUUGAGCAAUAUUACGUAAU | -2.79 ± 0.18 | -2.81 ± 0.24 |
| CUUGAGCAAUAUUACGUAGU | -3.28 ± 0.3 | -2.11 ± 0.33 |
| CUUGAGCAAUAUUACGUCAU | -3.58 ± 0.29 | -2.88 ± 0.31 |
| CUUGAGCAAUAUUACGUGAC | -2.55 ± 0.24 | -1.08 ± 0.19 |
| CUUGAGCAAUAUUACGUGUA | -2.71 ± 0.14 | -2.84 ± 0.2 |

| Sequence | self-splicing fitness (ln) (30 °C) | self-splicing fitness (ln) (37 °C) |
| --- | --- | --- |
| CUUGAGCAAUAUUACGUGUG | -2.12 ± 0.07 | -0.901 ± 0.073 |
| CUUUAGCAAUAUUACGAACU | -3.28 ± 0.24 | -2.54 ± 0.19 |
| CUUUAGCAAUAUUACGCAAG | -2.43 ± 0.22 | -1.67 ± 0.3 |
| CUUUAGCAAUAUUACGCGCU | -3.14 ± 0.25 | -0.469 ± 0.17 |
| CUUUAGCAAUAUUACGCGUA | -3.14 ± 0.26 | -3.28 ± 0.35 |
| CUUUAGCAAUAUUACGCUAC | -2.83 ± 0.35 | – |
| CUUUAGCAAUAUUACGGCAA | -2.06 ± 0.24 | -1.98 ± 0.28 |
| CUUUAGCAAUAUUACGGGAU | -3.8 ± 0.22 | -2.67 ± 0.19 |
| CUUUAGCAAUAUUACGGUGU | -3.52 ± 0.21 | -3.12 ± 0.25 |
| CUUUAGCAAUAUUACGUACG | -0.271 ± 0.098 | 0.109 ± 0.12 |
| CUUUAGCAAUAUUACGUCGG | -1.79 ± 0.11 | -1.25 ± 0.12 |
| CUUUAGCAAUAUUACGUUAU | -3.64 ± 0.23 | -1.79 ± 0.19 |
| GAAAAGCAAUAUUACGACAU | -0.184 ± 0.011 | 0.116 ± 0.032 |
| GAAAAGCAAUAUUACGACGU | 0.263 ± 0.088 | 0.769 ± 0.099 |
| GAAAAGCAAUAUUACGAUUU | -0.346 ± 0.052 | -0.372 ± 0.073 |
| GAAAAGCAAUAUUACGCCCU | 0.325 ± 0.12 | -0.233 ± 0.14 |
| GAAAAGCAAUAUUACGCGAC | – | 0.397 ± 0.26 |
| GAAAAGCAAUAUUACGGACC | -0.128 ± 0.094 | -0.398 ± 0.15 |
| GAAAAGCAAUAUUACGGAUU | -2.03 ± 0.09 | -1.03 ± 0.11 |
| GAAAAGCAAUAUUACGGCAG | -3.02 ± 0.25 | -1.96 ± 0.23 |
| GAAAAGCAAUAUUACGGCGC | 0.706 ± 0.11 | 0.245 ± 0.18 |
| GAAAAGCAAUAUUACGGUCU | -0.737 ± 0.057 | -0.398 ± 0.072 |
| GAAAAGCAAUAUUACGGUGU | -2.55 ± 0.096 | -0.927 ± 0.11 |
| GAAAAGCAAUAUUACGGUUC | -3.18 ± 0.11 | -2.88 ± 0.16 |
| GAAAAGCAAUAUUACGGUUG | -2.39 ± 0.088 | -1.42 ± 0.12 |

| Sequence | self-splicing fitness (ln) (30 °C) | self-splicing fitness (ln) (37 °C) |
| --- | --- | --- |
| GAAAAGCAAUAUUACGUCGA | -1.14 ± 0.088 | -0.0848 ± 0.12 |
| GAAAAGCAAUAUUACGUCUG | -0.835 ± 0.068 | -0.219 ± 0.084 |
| GAAAAGCAAUAUUACGUCUU | -0.419 ± 0.068 | 0.391 ± 0.086 |
| GAAAAGCAAUAUUACGUGCA | -0.843 ± 0.073 | -0.0478 ± 0.085 |
| GAAAAGCAAUAUUACGUUCU | -3.87 ± 0.17 | -3.19 ± 0.18 |
| GAACAGCAAUAUUACGAAUA | -1.48 ± 0.098 | -0.755 ± 0.11 |
| GAACAGCAAUAUUACGACAC | -0.422 ± 0.08 | 0.0163 ± 0.1 |
| GAACAGCAAUAUUACGACUA | -0.346 ± 0.085 | -0.46 ± 0.097 |
| GAACAGCAAUAUUACGCAUG | -1.18 ± 0.064 | -0.291 ± 0.08 |
| GAACAGCAAUAUUACGCCUU | -0.755 ± 0.13 | 0.356 ± 0.14 |
| GAACAGCAAUAUUACGCGGC | -4 ± 0.43 | -1.6 ± 0.23 |
| GAACAGCAAUAUUACGCUAC | -4.08 ± 0.34 | -1.64 ± 0.37 |
| GAACAGCAAUAUUACGCUUC | -4.44 ± 0.19 | -3.19 ± 0.2 |
| GAACAGCAAUAUUACGGACG | -1.88 ± 0.11 | -0.3 ± 0.12 |
| GAACAGCAAUAUUACGGAUC | -0.794 ± 0.06 | -0.441 ± 0.08 |
| GAACAGCAAUAUUACGGAUU | -1.29 ± 0.076 | -0.167 ± 0.093 |
| GAACAGCAAUAUUACGGCAC | -0.296 ± 0.083 | -0.0202 ± 0.1 |
| GAACAGCAAUAUUACGGCAU | -0.904 ± 0.085 | -0.254 ± 0.096 |
| GAACAGCAAUAUUACGGCGA | -1.38 ± 0.09 | -0.318 ± 0.077 |
| GAACAGCAAUAUUACGGUUG | -2 ± 0.1 | -0.692 ± 0.12 |
| GAACAGCAAUAUUACGUAAA | -0.541 ± 0.061 | 0.234 ± 0.075 |
| GAACAGCAAUAUUACGUCUA | -0.567 ± 0.074 | -0.586 ± 0.073 |
